This is an account of results in article PMC12700104.

The assay has as its target YxiD^CTD (C-terminal domain of YxiD, Pro428-Pro534), Bacillus subtilis 6633 (Bacillus subtilis 6633 (Bacillus subtilis subsp. spizizenii ATCC 6633)). Briefly: ITC; 15 uM YxiD^CTD in the cell titrated with 150 uM YxxD in the syringe; 25°C; 20 mM HEPES pH 7.5, 150 mM NaCl; OneSite binding model.

B1: YxxD immunity protein, Bacillus subtilis 6633 (natural protein)
chain: MSYNFIKSNKENDFYPVNQSEIEEVEKNLNLKLPSELVNFYLEVGYGFIKGSEFNTNRILDPYSVRDFRLRINDFEFYPDIEIYDEFENDKLIFFEGSESALMSIELNDNNKNPIYYYDIQIATSLTEFLRKIEENDQYYLDLLDDE
As to B1, the Kd was 9.4 nM, the dH was -10.2 kcal/mol and the stoichiometry N turned out to be 0.975 sites.
